{
  "source": "the nanobody polyreactivity screen of Harvey et al. (2022)",
  "data": [
    {"experiment": "yeast display, Sf9 membrane polyspecificity reagent, FACS + sequencing; frameworks hold sequencing errors", "in_short": "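Using colony PCR, genes from sorted yeast display clones were amplified, then sequenced on MiSeq at 2 × 250 and filtered by CDR length. The clones had been stained with 10% biotinylated, detergent-solubilized Sf9 membrane reagent for 1 hour at 4 °C and sorted by FACS into low and high (top ~1%) gates on anti-HA and streptavidin fluorescence. Polyreactivity labels come from the gate of origin.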", "values": [
      {"sequence": "QVQLVESGGGLVQAGGSLRLSCAASGSTYLYAIRWYRQAPGKERELVAAISWSGGSTYYADSVKGRFTISRDNAKNTVYLQMNSLKPEDTAVYYCNAYTYPFDWGQGTQVTVSS", "polyreactivity (PSR sort gate)": "high polyreactivity"},
      {"sequence": "QVQLVESGGGLVQAGGSLRLSCAASGSTYRDYAKGWYRQAPGKERELVASITSGSSTYYADSLKGRFTMSRDNAKNTVYLQMNSLKPEDTAVYYCATGRQYDLHRLRHDYWGQGTQVTVSS", "polyreactivity (PSR sort gate)": "low polyreactivity"},
      {"sequence": "QVQLVESGGGLVQAGGSLRLSCAASGSTYRGYAMGWYRQAPGKEMELVAAISNRGTRTYYADSVKGRFTISRYNAKNTFYLQMNSLKPEDTAVYYFSAGNRVHRFDYWGQGTQVTVSS", "polyreactivity (PSR sort gate)": "high polyreactivity"},
      {"sequence": "QVQLVESGGGLVQAGGSLRLSCAASGSTYRLYAMGWYRQAPGKERELVAAITWRGTTYYADSVKGRFTISRDNAKNTVYLQMNSLKPEDTAVYYCAARAPVAGYKYRYDYWGQGTQVTVSS", "polyreactivity (PSR sort gate)": "high polyreactivity"},
      {"sequence": "QVQLVESGGGLVQAGGSLRLSCAASGSTYRVKAMGWYRQAPGKEREFVAAITRGGSTNYADSVKGRFTISRDNAMNTVYLQMNSLKPEDTAVYYCATAYRGRAWGYVYWGQGTQVTVSS", "polyreactivity (PSR sort gate)": "high polyreactivity"},
      {"sequence": "QVQLVESGGGLVQAGGSLRLSCAASGSTYRYYDMGWYRQAPGKERELVAAITWSGGTTYYADSVKGRFTISRDNAKNTVYLQMNSLKPEDTAVYYCAADSVLTPYDYWGQGTQVTVSS", "polyreactivity (PSR sort gate)": "low polyreactivity"},
      {"sequence": "QVQLVESGGGLVQAGGSLRLSCAASGSTYYKYAMGTDRPAPGKERELVASSSRSGGSTSYADSVKGRFTISRDNAKNTVYLQMNSVKPEDTAVYYCAATWRQHPGSMGYWGQGTQVTVSS", "polyreactivity (PSR sort gate)": "high polyreactivity"},
      {"sequence": "QVQLVESGGGLVQAGGSLRLSCAASGSTYYPYAMGWSRQAPGKEWQFVAAITWSGGSTYADSVKGRFTISRDNAKNTVNLQMNSLKPEDTAGYYCAAQPFVIDGGYRGDYWGQGTQETVSS", "polyreactivity (PSR sort gate)": "low polyreactivity"},
      {"sequence": "QVQLVESGGGLVQAGGSLRLSCAASGSTYYWYMGWYRQAPGKERELVAAITSGGRTYYADSVKGRFTISRDNAKNTVYLQMNSLKPEDTAVYYCARPYSRAYDYWGQGTQVTVSS", "polyreactivity (PSR sort gate)": "high polyreactivity"},
      {"sequence": "QVQLVESGGGLVQAGGSLRLSCAASGSTYYYNAMGSYRQAPGKDRELVARISRSGGSTYADSVKGRFTISRDNAKNTVYLQMNSLKPEDTAVYYCNADAYGTPEFTSYAVRYDYWGQGTQVTVSS", "polyreactivity (PSR sort gate)": "low polyreactivity"},
      {"sequence": "QVQLVESGGGLVQAGGSLRLSCAASGSTYYYYMGWYRQAPGKERELVASISYTGSRTYYADSVKGRFTISRDNAKNTVYLQMNSLKPEDTAVYYCAAARSRARSYYYWGQGTQVTVSS", "polyreactivity (PSR sort gate)": "high polyreactivity"},
      {"sequence": "QVQLVESGGGLVQAGGSLRLSCAASGSYTMGWYRQAPGKERELVAAISKSGGSTYYADSVKGRFTISRDNAKNTVYLQMNRLKPEDTAVYYCAAVGWWGTYDYWGQGTQVTVSS", "polyreactivity (PSR sort gate)": "high polyreactivity"},
      {"sequence": "QVQLVESGGGLVQAGGSLRLSCAASGTFAGNAIGWYRQAPGKERELVAAINSGGSTNYADSVKGRFTISRDNAKNTVYLQMNSLKPEDTAVYYCAADSVWSPVDYDYWGQGSQVTVSS", "polyreactivity (PSR sort gate)": "low polyreactivity"},
      {"sequence": "QVQLVESGGGLVQAGGSLRLSCAASGTFGGYAMGWYRQAPGKERELVARIRRNGGSTYYADSVKGRFTISRDTAKNTVYLQMNSLKPEDTAVYYCATDQLSLSSYFRPYDYGYWGQGTQVTVSS", "polyreactivity (PSR sort gate)": "high polyreactivity"},
      {"sequence": "QVQLVESGGGLVQAGGSLRLSCAASGTFIGYAMGWYRQAPGKERELVAAIDVSGGSTYYADSVKGRFTISRDNAKNTVYLQMNSLKPEDTAVYYCATDRGPEVVLYDYWGHGTQVTVSS", "polyreactivity (PSR sort gate)": "low polyreactivity"},
      {"sequence": "QVQLVESGGGLVQAGGSLRLSCAASGTFRRYTMGWYRQAPGKERELVAAITSSGGTYYADSVKGRFTISRDNAKNTVYLQMNSLKPEDTAVYYCAARDYWSRYFRPGIVGWHDYWGQGTQVTVSS", "polyreactivity (PSR sort gate)": "high polyreactivity"},
      {"sequence": "QVQLVESGGGLVQAGGSLRLSCAASGTFTVNTMGWSRQAPGKERELVAAISTGDTTTYADSVKGRFTISRDNAKNTVYLQMNSLKPEDTAVYYCNAVAKLYYWRYDYWGQGTQVTVSS", "polyreactivity (PSR sort gate)": "low polyreactivity"},
      {"sequence": "QVQLVESGGGLVQAGGSLRLSCAASGTFVLSAMGWYRPAPGKERELVAAISKTGRTYYADSVKGRFTISRDNAKNTVYLQMNSLKPEDTSVYYCAAQRFSKFGYWGQGTQVTVSS", "polyreactivity (PSR sort gate)": "high polyreactivity"},
      {"sequence": "QVQLVESGGGLVQAGGSLRLSCAASGTFWGYAMGWYRQAPGKERELVAAISASGASTSYADSVKGRFTISRDNAKNTVYLQMNSLKPEDTAVYYCDARRNTAYGYWGQGTQVTVSS", "polyreactivity (PSR sort gate)": "high polyreactivity"},
      {"sequence": "QVQLVESGGGLVQAGGSLRLSCAASGTFYTNAMGWYRPAPGKERELVAAITSGGSTYYADSVKGRFTISRDNAKNTVYLQMNSLKPEDTAVYYCAADPVSHGYDIDYDYWGQGTQVTVSS", "polyreactivity (PSR sort gate)": "low polyreactivity"},
      {"sequence": "QVQLVESGGGLVQAGGSLRLSCAASGTFYYYAMGWYRPAPGKERELVAAIDYSGGSTYYADSVKGRFTISRDNAKNTVYLQMNSLKPEDTAVYYCAYVSVYDFEYWGQGTQVTVSS", "polyreactivity (PSR sort gate)": "high polyreactivity"},
      {"sequence": "QVQLVESGGGLVQAGGSLRLSCAASGTIFDSYAKVWYRQAPGKERELVAAISSSVGSTYYADSVKGRFTISRDNAKNTVYLQMNSLKPEDTAVYYCNADEYWASGYDPYDYWGQGTQVTVSS", "polyreactivity (PSR sort gate)": "low polyreactivity"},
      {"sequence": "QVQLVESGGGLVQAGGSLRLSCAASGTIFFPNAMGWYREAPGKERELVAAISWSGDSTYADSVKGRFTISRDNAKNTVYLQMNSLKPQDTAVYYCAAVYLWWSYEFDYWGQGTQVTVSS", "polyreactivity (PSR sort gate)": "low polyreactivity"},
      {"sequence": "QVQLVESGGGLVQAGGSLRLSCAASGTIFQQYAMGWYRQAPGKERELVAAISYSGGTTYYADSVKGRFTISRDNAKNTDYLEMNSLKPEDTAVYYCAAYYPSGSYDYYWGQGTQVTVSS", "polyreactivity (PSR sort gate)": "low polyreactivity"},
      {"sequence": "QVQLVESGGGLVQAGGSLRLSCAASGTIFVPYAMGWYRQAPGKERELVAVITSGGSTYYADSVKGRFTISRDNAKNTVYLQMNSLKPEDTAVYYCNADLYYVWSTLSQFDYWGQGTQVTVSS", "polyreactivity (PSR sort gate)": "low polyreactivity"},
      {"sequence": "QVQLVESGGGLVQAGGSLRLSCAASGTIFYDNAMGWYRQAPAKERELVASIRWSGDSTYYADSVKGRFTISRDNAKNTVYLQMISLKPEDTAVYYCAADPVEPYFTAIAYDYWGQGTQVTVSS", "polyreactivity (PSR sort gate)": "low polyreactivity"},
      {"sequence": "QVQLVESGGGLVQAGGSLRLSCAASGTTFAYYAMGWYRQAPGKERELVAVISVRGGSTYYADSVKGRFTISRDNAKNTVYLQMNSLKPEDTAVYYCAADTFAGYYYWGQGTQVTVSS", "polyreactivity (PSR sort gate)": "high polyreactivity"},
      {"sequence": "QVQLVESGGGLVQAGGSLRLSCAASGTTFPRYAMGWYRQAPGKERELVAAISSGGSTYYADSVKGRFTISRDNAKNTVYLQMNRLKPEDTAVYYCNARRSRSRYDYWGQGTQVTVSS", "polyreactivity (PSR sort gate)": "high polyreactivity"},
      {"sequence": "QVQLVESGGGLVQAGGSLRLSCAASGTTFSPNAMGWYRQAPGKERELVAAITGGGSTYADSVKGRFTISRDNAKNTVYLQMNSLKPEDTAVYYCNADSYSFPYYYWGQGTQVTVSS", "polyreactivity (PSR sort gate)": "low polyreactivity"},
      {"sequence": "QVQLVESGGGLVQAGGSLRLSCAASGTTFTFNAMGWYRQAPGKEREFVAAITASGGRTYYADSVKGRFTISRDNAKNTVYLQMNSLKPEDTAVYYCAAHACLLGPGDFNYWGQGTQVTVSS", "polyreactivity (PSR sort gate)": "low polyreactivity"},
      {"sequence": "QVQLVESGGGLVQAGGSLRLSCAASGTTFVKNDMGWYRQAPGKERELVAAISGGSTNYADSVKGRFTISRDNAKNTVYLQMNSLKPEDTAVYYCAAVQWYTSIEGIQPYYYWGQGTQVTVSS", "polyreactivity (PSR sort gate)": "low polyreactivity"},
      {"sequence": "QVQLVESGGGLVQAGGSLRLSCAASGTTFVSNAMGWYRQAPGKERELVAAISKSGGSTYYADSVKGRFTISRDNAKNTVYLQMNSLKPEDTAVYYCAKYTAKSFYGQYDYWGQGTQVTVSS", "polyreactivity (PSR sort gate)": "high polyreactivity"}
    ]}
  ]
}
